4 sequences from article PMC4756307 can be followed below.

This series concerns the target T1, CodY (6His-CodY) (Streptococcus suis serotype 2 (strain SC19?)) (UniProt A0A0H3MTH0).
T1 sequence: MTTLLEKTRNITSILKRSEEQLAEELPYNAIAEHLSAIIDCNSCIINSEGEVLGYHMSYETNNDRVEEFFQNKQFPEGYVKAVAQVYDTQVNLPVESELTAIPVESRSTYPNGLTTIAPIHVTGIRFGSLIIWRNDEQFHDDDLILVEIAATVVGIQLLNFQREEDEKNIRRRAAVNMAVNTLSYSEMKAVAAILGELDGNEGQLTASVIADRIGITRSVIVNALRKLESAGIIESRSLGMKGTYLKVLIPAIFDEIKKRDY
The series is described as follows: EMSA. As to conditions: EMSA: 1 ug PCR product with 0-2200 ng CodY in binding buffer (Beyotime; composition, pH and salt not given), 30 min at 37 C, native PAGE, ethidium bromide …. Background: A gel shift assay detects complexes by their altered migration in electrophoresis.
In the case of “TCTGTATTTATCATTGTAGTCCTATCTGCAACAGTAGAAAATTATATTGTAAATTTAAGTTTTGTATTTATGCCAATATGTTTTTGTTTATTAAATTCTATATCTACTATGGAATCAACTATTAACAAACAACTGCAAACATAAATTGGCAGGAATAGAGTTTTGAGTTGCTATTAATTTGGTAGAGCATATGTTCTATAGGTGGCAAGATAGAAGATAGTATTTTTTACATGATGATTTTTATGATAGCA (double strand) [cps2J promoter]”, the binding entry is reported as “binds”. As to “AATACAAGCGACGATTCCCTTCGTTGCGATCGGGCTTAATCAAGCCTTGATCTTCATAGTAACGAATTTGACGAGCAGTTAAATCTGTCAACTTCATCACACTACCGATCGGAAAGATAGCTAAGGAACGACGAAACTCTTTTTCTCTCATAATGAACTCCTTTCTGCCTACCATTATAGGAGAATTTTTTTTTGAGGTCAATAGGTGATGTTATATTTTATAACATCATTTATCCTGAAAACGTTTTTTTATAACATTCACATCATAATTAACTAGAATCGCAATGAAAACTCC (double strand) [glnR promoter]”, the binding result is “binds”. Take “GGACGTATGCGCCTCTGCTTATGCCAGAAGTCATGAGGTAAATCTCCCTAAAAATTGGGTAGAAAAGCAGATTAAACTTCCACCAATCTATTGAAGATCGTGTGAAGAAGCAGGCTTTAGAAGCAACAAGCCCTGAGACTATTCGAAAGAAATCTAGGGCTATTTTTTCTAATCGGCTATCAGAAGTGAAGTAGCGATCTTTATTAGTGTTCTTTTACTACTTAAGGAAAACCAAGCTGCTCCCTCAAGACTTTATGGGAGCGATTTACAGTCATTT (double strand) [neuB (neu) promoter]”: the binding entry is recorded as “no binding”. Turning to “ATCTCGGTCTTTGGTTGTTTGGCTTTACAGCTCTATACTTTGTGGCAGCTTATCTGATTGCCCTCAATCCATCTCAAATCTTAAATAGTATCGGACGTATTTTAACCCCTGTTTTTGCGATTTTGATTGTGATTTTGGTGGTGCTTGGTATTGTTAAGTACGGATCAACAAGTCCGTTACCAGCTTCGGAAGCTTACTCAGCAGGACAGGCATTTGGTACAGGATTTATCGAGGGATACAATACACTCGACGCACTTGCTTCTATTGCTTTTAGTGTCGTAGCAGTAAATACCT (double strand) [bap2 promoter]”, the binding entry is on record as “binds”.
